Test results taken from US9994881B2, “Functionalized carboxylic acids and alcohols by reverse fatty acid oxidation in engineered microbes” (William Marsh Rice University, priority 2011, dated 2018).
Marks after values point to notes of the source that are not given here.

B1: FadA: E. coli 3-ketoacyl-CoA thiolase (thiolase I), a component of fatty acid oxidation complex FadAB (protein, UniProt P21151 1-387, looked up)
3-ketoacyl-CoA thiolase FadA: MEQVVIVDAIRTPMGRSKGGAFRNVRAEDLSAHLMRSLLARNPALEAAALDDIYWGCVQQTLEQGFNIARNAALLAEVPHSVPAVTVNRLCGSSMQALHDAARMIMTGDAQACLVGGVEHMGHVPMSHGVDFHPGLSRNVAKAAGMMGLTAEMLARMHGISREMQDAFAARSHARAWAATQSAAFKNEIIPTGGHDADGVLKQFNYDEVIRPETTVEALATLRPAFDPVNGMVTAGTSSALSDGAAAMLVMSESRAHELGLKPRARVRSMAVVGCDPSIMGYGPVPASKLALKKAGLSASDIGVFEMNEAFAAQILPCIKDLGLIEQIDEKINLNGGAIALGHPLGCSGARISTTLLNLMERKDVQFGLATMCIGLGQGIATVFERV
B2: egTER: NAD(P)H-dependent trans-2-enoyl-CoA reductase from Euglena gracilis (protein, UniProt Q5EU90 69-539, looked up)
Trans-2-enoyl-CoA reductase: VPQMAEGFSGEATSAWAAAGPQWAAPLVAAASSALALWWWAARRSVRRPLAALAELPTAVTHLAPPMAMFTTTAKVIQPKIRGFICTTTHPIGCEKRVQEEIAYARAHPPTSPGPKRVLVIGCSTGYGLSTRITAAFGYQAATLGVFLAGPPTKGRPAAAGWYNTVAFEKAALEAGLYARSLNGDAFDSTTKARTVEAIKRDLGTVDLVVYSIAAPKRTDPATGVLHKACLKPIGATYTNRTVNTDKAEVTDVSIEPASPEEIADTVKVMGGEDWELWIQALSEAGVLAEGAKTVAYSYIGPEMTWPVYWSGTIGEAKKDVEKAAKRITQQYGCPAYPVVAKALVTQASSAIPVVPLYICLLYRVMKEKGTHEGCIEQMVRLLTTKLYPENGAPIVDEAGRVRVDDWEMAEDVQQAVKDLWSQVSTANLKDISDFAGYQTEFLRLFGFGIDGVDYDQPVDVEADLPSAAQQ

Experiments:
Format in all cases: biochemical
[1] = thiolase activity in the reverse direction (loss of acetoacetyl-CoA at 303 nm); conditions: substrate Acetoacetyl-CoA; supernatant fraction; AtoB expressed from pCA24N, FadA from pUCBB-ntH6
Description: (§1) Cultures for enzymatic assays were grown overnight in 100 mL of LB media at 37° C. in 250 mL baffled flasks (Wheaton Industries, Inc., Millville, N.J.) in E. coli BL21 (DE3) cells induced with either 1 mM IPTG (pCA24N, pTrcHis2A) or 1 mM Arabinose (pUCBB-pBAD) at an OD600˜0.6, or expressed constitutively (pUCBB-ntH6). Reactions were monitored on either a Synergy HT plate reader (BioTek Instruments, Inc., Winooski, Vt.) at 25° C. (for reactions monitored at 300 nm or higher) or in a Biomate 5 Spectrophotometer (Thermo Scientific, Waltham, Mass.) for reactions at 263 nm. […]
(§2) For kinetic characterization, his-tagged proteins of AtoB, FadA, FadB, caHBD, egTER were purified from the B-PER supernatant fractions using Talon Metal Affinity Resin (Clontech Laboratories, Inc., Mountain View, Calif.) using gravity purification. […] Enzyme concentration was established by measuring the absorbance at […] and extinction coefficients predicted for each enzyme by the ProtParam program (web.expasy.org/protparam/).
(§3) For kinetic characterization, an appropriate amount of enzyme was established by checking linear range near predicted KM values. Then, the rates were measured for a range of substrates in order to establish kcat and KM. […]

[2] = forward thiolase assay (biosynthetic direction), coupled with caHBD; conditions: substrate Acetyl-CoA; supernatant fraction; AtoB expressed from pCA24N, FadA from pUCBB-ntH6
Description: as §1, §2, §3

[3] = crotonyl-CoA reductase activity (loss of NADH absorbance); conditions: substrate Crotonyl-CoA; supernatant fraction; expressed from pTrcHis2A
Description: as §1, §2, §3

| Molecule | Specific Activity [1] | Specific Activity [2] | Specific Activity [3] |
| --- | --- | --- | --- |
| B1 | 0.013 ± 0.002^c μmol/mg/min | Not detected^c | – |
| B2 | – | – | 5.4 ± 0.6^d μmol/mg/min |
